Reference: patent publication US20140194367A1, “AGROCYBE AEGERITA LECTIN AAL-2, AND ENCODING GENE THEREOF, PREPARATION METHOD THEREFOR AND APPLICATION THEREOF” (WUHAN ALPHA-OMEGA BIOLOGY TECHNOLOGY CO., LTD(CN), priority 2011, published 2014)
Entries after “also recorded” stand apart in the source; their conditions may differ.

How the values were obtained:
[1] = Glycochip binding, glycan 308
Experimental: (§1) In order to identify the carbohydrate binding activity of Agrocybe aegerita lectin AAL-2, the Agrocybe aegerita lectin AAL-2 is used to detect 465 kinds of carbohydrate by the glycochip technology.
(§2) Firstly, the purified Agrocybe aegerita lectin AAL-2 (isolated in example 1) is labeled with the biotin and 200 μg/mL AAL-2 incubates the glycochip, then the fluorescein labeled streptavidin combines with the biotin labeled AAL-2. Results are shown in Table 4 (different carbohydrate affinity of AAL-2 arranged from high to low (top of 23 carbohydrates)).

[2] = Glycochip binding, glycan 190; details: glycan number 190; 200 μg/mL AAL-2
Experimental: as §1, §2

Huh7 = assay: AAL-2 induced apoptosis of Huh7 cells, Annexin V/PI flow cytometry; type: cell-based; details: 0.6, 1.2, 2.4 μmol/L; 24 hours and 36 hours; FIG. 6B
Experimental: (§3) The experiment detects the killing activity of Agrocybe aegerita lectin AAL-2 (isolated protein in example 1) to the two tumor cell lines (H22, Huh7). H22 and Huh7 cell lines (purchased from ATCC) are cultured in RPMI1640 medium and DMEM medium (contains 10% fetal bovine serum, […] and 100 U/mL penicillin). Different concentrations of Agrocybe aegerita lectin AAL-2 prepared in the example 1 are added into tumor cells (final concentration is 0.6 μmol/L, 1.2 μmol/L, 2.4 μmol/L) and cultured for 24 hours and 36 hours, respectively. The treated cells are digested into single cell, stained with the Annexin V/PI dye and detected by the flow cytometry.

[3] = Glycochip binding, glycan 336
Experimental: as §1, §2

[4] = Glycochip binding, glycan 340
Experimental: as §1, §2

[5] = Glycochip binding, glycan 175
Experimental: as §1, §2

[6] = Glycochip binding, glycan 407
Experimental: as §1, §2

[7] = Glycochip binding, glycan 337
Experimental: as §1, §2

[8] = Carbohydrate binding specificity by glycochip technology; details: biotin labeled AAL-2, 200 μg/mL
Experimental: as §1, §2

[9] = Glycochip binding, glycan 176; details: glycan number 176; 200 μg/mL AAL-2
Experimental: as §1, §2

[10] = Glycochip binding, glycan 94
Experimental: as §1, §2

[11] = Glycochip binding, glycan 171
Experimental: as §1, §2

[12] = Glycochip binding, glycan 341
Experimental: as §1, §2

[13] = test system: mouse hepatoma cell line H22; assay: Tumor growth of H22 tumor bearing mice, in situ tumour injection; type: in vivo, BALB/c mice; details: 5 mg/kg in situ tumour injection every other day, 7 injections
Experimental: In this experiment, the BALB/c mice (6-8weeks old, 20 g) are used for the antitumour activity assay. 0.1 ml mouse hepatoma cell line H22 (1×10^7 cells/mL) is subcutaneously inoculated into the oxter area of the BALB/c mice. 7 days after inoculation, inject the Agrocybe aegerita lectin AAL-2 by in situ tumour (protein isolated in example 1) (5 mg/kg, 0.1 ml/mouse). The control group is treated with 0.9% NaCl. Then take the injection every other day, a total of 7 injections, and record the size of the tumor tissue in mice. Tumor size=tumor tissue length L×width W^2/2.

[14] = Glycochip binding, glycan 178
Experimental: as §1, §2

[15] = Glycochip binding, glycan 180
Experimental: as §1, §2

[16] = Glycochip binding, glycan 338
Experimental: as §1, §2

[17] = Glycochip binding, glycan 179
Experimental: as §1, §2

[18] = Glycochip binding, glycan 172
Experimental: as §1, §2

[19] = Glycochip binding, glycan 182
Experimental: as §1, §2

[20] = Glycochip binding, glycan 181
Experimental: as §1, §2

H22 = assay: AAL-2 induced apoptosis of H22 cells, Annexin V/PI flow cytometry; type: cell-based, mouse; details: 0.6, 1.2, 2.4 μmol/L; 24 hours and 36 hours; FIG. 6A
Experimental: as §3

[21] = Glycochip binding, glycan 339
Experimental: as §1, §2

[22] = Glycochip binding, glycan 177; details: glycan number 177; 200 μg/mL AAL-2
Experimental: as §1, §2

[23] = Glycochip binding, glycan 309; details: glycan number 309; 200 μg/mL AAL-2
Experimental: as §1, §2

[24] = Glycochip binding, glycan 17; details: glycan number 17; 200 μg/mL AAL-2
Experimental: as §1, §2

[25] = Glycochip binding, glycan 88
Experimental: as §1, §2

[26] = rank of affinity, carbohydrate spectrum of AAL-2

B1: AAL-2: new lectin isolated from Agrocybe aegerita total protein by affinity chromatography; amino acid sequence SEQ ID NO: 2; 43 kDa monomer (protein, listed as Agrocybe aegerita)
chain: MTSNVITQDLPIPVASRGFADIVGFGLDGVVIGRNAVNLQPFLAVKNFAQNAGGWLTTKHVRLIADTTGTGKGDIVGFGNAGVYVSVNNGKNTFADPPKMVIANFGYDAGGWRVEKHLRYLADIRKIGRADIIGFGEKGVLVSRNNGGLNFGPATLVLKDFGYDAGGWRLDRHLRFLADVTGNGHLDIVGFGDKHVFISRNNGDGTFAPAKSVIDNFCIDAGGWKIGDHPRFVADLTGDGTADIIGCGKAGCWVALNNGGGVFGQVKLVINDFGTDKGWQAAKHPRFIADLTGNGRGDVVGFGNAGVYVALNNGDGTFQSAKLVLKDFGVQQGWTVSKHRRFVVDLTGDGCADIIGFGEKETLVSYNDGKGNFGPVKALTNDFSFSGGKWAPETTVCWMANLDSSRH
[1]; glycan number 308, 200 μg/mL AAL-2
  average: 11572
[1]; [26]
  order (glycosyl structure affinity of top 18): 12
[2]
  average: 5571
Huh7
  apoptosis of Huh7 cells: apoptosis inducing activity depends on the concentration; also recorded: significantly cause two hepatoma cell lines apoptosis
[3]; glycan number 336, 200 μg/mL AAL-2
  average: 30519
[3]; [26]
  order (glycosyl structure affinity of top 18): 1
[4]; glycan number 340, 200 μg/mL AAL-2
  average: 8758
[4]; [26]
  order (glycosyl structure affinity of top 18): 14
[5]; glycan number 175, 200 μg/mL AAL-2
  average: 21115
[5]; [26]
  order (glycosyl structure affinity of top 18): 3
[6]; glycan number 407, 200 μg/mL AAL-2
  average: 6992
[6]; [26]
  order (glycosyl structure affinity of top 18): 18
[7]; glycan number 337, 200 μg/mL AAL-2
  average: 19030
[7]; [26]
  order (glycosyl structure affinity of top 18): 7
[8]
  carbohydrate binding specificity: specifically preferentially bind to carbohydrates with N-Acetylglucosamine as the terminal
[9]
  average: 5896
[10]; glycan number 94, 200 μg/mL AAL-2
  average: 11198
[10]; [26]
  order (glycosyl structure affinity of top 18): 13
[11]; glycan number 171, 200 μg/mL AAL-2
  average: 24487
[11]; [26]
  order (glycosyl structure affinity of top 18): 2
[12]; glycan number 341, 200 μg/mL AAL-2
  average: 11672
[12]; [26]
  order (glycosyl structure affinity of top 18): 11
[13]; FIG. 7A
  tumor growth (tumor size): significantly inhibited; also recorded: inhibit the tumor growth
[13]; FIG. 7B
  survival time of tumor bearing mice: prolonged obviously; also recorded: prolong the survival time
[14]; glycan number 178, 200 μg/mL AAL-2
  average: 7339
[14]; [26]
  order (glycosyl structure affinity of top 18): 17
[15]; glycan number 180, 200 μg/mL AAL-2
  average: 17289
[15]; [26]
  order (glycosyl structure affinity of top 18): 9
[16]; glycan number 338, 200 μg/mL AAL-2
  average: 16141
[16]; [26]
  order (glycosyl structure affinity of top 18): 10
[17]; glycan number 179, 200 μg/mL AAL-2
  average: 19530
[17]; [26]
  order (glycosyl structure affinity of top 18): 5
[18]; glycan number 172, 200 μg/mL AAL-2
  average: 19311
[18]; [26]
  order (glycosyl structure affinity of top 18): 6
[19]; glycan number 182, 200 μg/mL AAL-2
  average: 8464
[19]; [26]
  order (glycosyl structure affinity of top 18): 16
[20]; glycan number 181, 200 μg/mL AAL-2
  average: 18737
[20]; [26]
  order (glycosyl structure affinity of top 18): 8
H22
  apoptosis of H22 cells: apoptosis inducing activity depends on the concentration; also recorded: significantly cause two hepatoma cell lines apoptosis
[21]; glycan number 339, 200 μg/mL AAL-2
  average: 20868
[21]; [26]
  order (glycosyl structure affinity of top 18): 4
[22]
  average: 5782
[23]
  average: 6078
[24]
  average: 5331
[25]; glycan number 88, 200 μg/mL AAL-2
  average: 8504
[25]; [26]
  order (glycosyl structure affinity of top 18): 15
